± gives the standard deviation of the averaged measurements.
Assay: total protein half-life in vivo (active degradation + dilution); higher = more stable protein
[1] = E. coli NCM3722 delta-clpP delta-lon delta-hslV, growth: N-lim chemostat, doubling time 6 h
[2] = E. coli NCM3722 delta-clpP, growth: N-lim chemostat, doubling time 6 h
[3] = E. coli NCM3722 delta-hslV, growth: N-lim chemostat, doubling time 6 h
[4] = E. coli NCM3722 delta-lon, growth: N-lim chemostat, doubling time 6 h
[5] = E. coli NCM3722 delta-smpB, growth: N-lim chemostat, doubling time 6 h
[6] = wild type E. coli NCM3722, growth: C-lim chemostat, doubling time 3 h
[7] = wild type E. coli NCM3722, growth: C-lim chemostat, doubling time 6 h
[8] = wild type E. coli NCM3722, growth: C-lim chemostat, doubling time 12 h
[9] = wild type E. coli NCM3722, growth: N-lim chemostat, doubling time 6 h
[10] = wild type E. coli NCM3722, growth: N-lim chemostat, doubling time 12 h
[11] = wild type E. coli NCM3722, growth: P-lim chemostat, doubling time 6 h
[12] = wild type E. coli NCM3722, growth: P-lim chemostat, doubling time 12 h

Row | Sequence | total protein half-life in vivo [1] [h] | total protein half-life in vivo [2] [h] | total protein half-life in vivo [3] [h] | total protein half-life in vivo [4] [h] | total protein half-life in vivo [5] [h] | total protein half-life in vivo [6] [h] | total protein half-life in vivo [7] [h] | total protein half-life in vivo [8] [h] | total protein half-life in vivo [9] [h] | total protein half-life in vivo [10] [h] | total protein half-life in vivo [11] [h] | total protein half-life in vivo [12] [h]
1 | MKQQIQLRRREVDETADLPAELPPLLRRLYASRGVRSAQELERSVKGMLPWQQLSGVEKAVEILYNAFREGTRIIVVGDFDADGATSTALSVLAMRSLGCSNIDYLVPNRFEDGYGLSPEVVDQAHARGAQLIVTVDNGISSHAGVEHARSLGIPVIVTDHHLPGDTLPAAEAIINPNLRDCNFPSKSLAGVGVAFYLMLALRTFLRDQGWFDERNIAIPNLAELLDLVALGTVADVVPLDANNRILTWQGMSRIRAGKCRPGIKALLEVANRDAQKLAASDLGFALGPRLNAAGRLDDMSVGVALLLCDNIGEARVLANELDALNQTRKEIEQGMQIEALTLCEKLERSRDTLPGGLAMYHPEWHQGVVGILASRIKERFHRPVIAFAPAGDGTLKGSGRSIQGLHMRDALERLDTLYPGMMLKFGGHAMAAGLSLEEDKFKLFQQRFGELVTEWLDPSLLQGEVVSDGPLSPAEMTMEVAQLLRDAGPWGQMFPEPLFDGHFRLLQQRLVGERHLKVMVEPVGGGPLLDGIAFNVDTALWPDNGVREVQLAYKLDINEFRGNRSLQIIIDNIWPI | 4.22 ± 0.25 | 3.87 ± 1.1 | 2.23 ± 0.075 | 2.74 ± 0.093 | 2.07 ± 0.028 | 2.11 ± 0.042 | 3.66 ± 0.65 | 4.42 ± 0.24 | 2.25 ± 0.044 | 3.5 ± 0.59 | 2.33 ± 0.37 | 3.89 ± 0.38
2 | MKQYLIAPSILSADFARLGEDTAKALAAGADVVHFDVMDNHYVPNLTIGPMVLKSLRNYGITAPIDVHLMVKPVDRIVPDFAAAGASIITFHPEASEHVDRTLQLIKENGCKAGLVFNPATPLSYLDYVMDKLDVILLMSVNPGFGGQSFIPQTLDKLREVRRRIDESGFDIRLEVDGGVKVNNIGEIAAAGADMFVAGSAIFDQPDYKKVIDEMRSELAKVSHE [P0AG07] | 5.23 ± 0.28 | 4.58 ± 0.58 | 5.6 ± 1.7 | 4.69 ± 0.12 | 4.27 ± 0.7 | 3.2 ± 0.21 | 5.43 ± 0.99 | 11.4 ± 0.82 | 4.84 ± 0.16 | 7.52 ± 0.15 | 5.72 ± 0.56 | 12 ± 0.16
3 | MKRAFIMVLDSFGIGATEDAERFGDVGADTLGHIAEACAKGEADNGRKGPLNLPNLTRLGLAKAHEGSTGFIPAGMDGNAEVIGAYAWAHEMSSGKDTPSGHWEIAGVPVLFEWGYFSDHENSFPQELLDKLVERANLPGYLGNCHSSGTVILDQLGEEHMKTGKPIFYTSADSVFQIACHEETFGLDKLYELCEIAREELTNGGYNIGRVIARPFIGDKAGNFQRTGNRHDLAVEPPAPTVLQKLVDEKHGQVVSVGKIADIYANCGITKKVKATGLDALFDATIKEMKEAGDNTIVFTNFVDFDSSWGHRRDVAGYAAGLELFDRRLPELMSLLRDDDILILTADHGCDPTWTGTDHTREHIPVLVYGPKVKPGSLGHRETFADIGQTLAKYFGTSDMEYGKAMF [P0A6K6] | 4.63 ± 0.33 | 4.5 ± 0.27 | 4.39 ± 0.2 | 4.1 ± 0.049 | 3.41 ± 0.21 | 2.41 ± 0.5 | 4.68 ± 0.54 | 9 ± 0.31 | 4 ± 0.39 | 6.61 ± 0.31 | 3.91 ± 0.25 | 7.26 ± 0.64
4 | MKRAPLITGLLLISTSCAYASSGGCGADSTSGATNYSSVVDDVTVNQTDNVTGREFTSATLSSTNWQYACSCSAGKAVKLVYMVSPVLTTTGHQTGYYKLNDSLDIKTTLQANDIPGLTTDQVVSVNTRFTQIKNNTVYSAATQTGVCQGDTSRYGPVNIGANTTFTLYVTKPFLGSMTIPKTDIAVIKGAWVDGMGSPSTGDFHDLVKLSIQGNLTAPQSCKINQGDVIKVNFGFINGQKFTTRNAMPDGFTPVDFDITYDCGDTSKIKNSLQMRIDGTTGVVDQYNLVARRRSSDNVPDVGIRIENLGGGVANIPFQNGILPVDPSGHGTVNMRAWPVNLVGGELETGKFQGTATITVIVR | – | 5.21 | 6.04 ± 0.24 | – | – | 3.66 | 6.25 ± 0.34 | 11.5 | 5.8 | 14 | 5.42 | 13.3
5 | MKRFSLAILALVVATGAQAASEKVEMNLVTSQGVGQSIGSVTITETDKGLEFSPDLKALPPGEHGFHIHAKGSCQPATKDGKASAAESAGGHLDPQNTGKHEGPEGAGHLGDLPALVVNNDGKATDAVIAPRLKSLDEIKDKALMVHVGGDNMSDQPKPLGGGGERYACGVIK [P0AGD1] | 5.72 ± 1.6 | 6.84 ± 0.29 | 6.36 ± 0.53 | 6.86 ± 0.16 | 5.11 ± 0.17 | 2.81 ± 0.45 | 6.27 ± 0.81 | 10 ± 1.8 | 6.57 ± 0.63 | 11.8 ± 1.3 | 5.69 ± 0.66 | 11 ± 0.99
6 | MKRLIVGISGASGAIYGVRLLQVLRDVTDIETHLVMSQAARQTLSLETDFSLREVQALADVTHDARDIAASISSGSFQTLGMVILPCSIKTLSGIVHSYTDGLLTRAADVVLKERRPLVLCVRETPLHLGHLRLMTQAAEIGAVIMPPVPAFYHRPQSLDDVINQTVNRVLDQFAITLPEDLFARWQGA [P0AG03] | 5.38 ± 0.31 | 4.35 ± 0.49 | 4.3 ± 0.56 | 4.77 ± 0.86 | 4.678 ± 0.041 | 3.22 ± 0.35 | 6.52 ± 0.94 | 11.2 ± 1.5 | 4.09 ± 0.35 | 7.54 ± 1 | 5.53 ± 0.22 | 11.9 ± 0.56
7 | MKRNLLSSAIIVAIMSLGLTGCDDKKAETETLPPANSQPAAPAPEAKPTEAPVAKAEAKPETPAQPVVDEQAVFDEKMDVYIKCYNKLQIPVQRSLARYADWLKDFKQGPTGEERTVYGIYGISESNLAECEKGVKSAVALTPALQPIDGVAVSYIDAAVALGNTINEMDKYYTQENYKDDAFAKGKTLHQTFLKNLEAFEPVAESYHAAIQEINDKRQLAELKNIEEREGKTFHYYSLAVMISAKQINNLISQDKFDAEAAMKKVSELETLVAQAKEADKGGMNFSFINSAGQYQLEAKKYVRRIRDKVPYSDWDKEQLQDANSSWMVEDSFPRALREYNEMVDDYNSLR | 6 | – | – | – | 5.67 ± 0.5 | – | 6.58 | – | 6.45 | 10.5 | 5.81 ± 0.094 | 10
8 | MKRNTKIALVMMALSAMAMGSTSAFAHGGHGMWQQNAAPLTSEQQTAWQKIHNDFYAQSSALQQQLVTKRYEYNALLAANPPDSSKINAVAKEMENLRQSLDELRVKRDIAMAEAGIPRGAGMGMGYGGCGGGGHMGMGHW [P0AAA9] | – | – | – | – | – | – | – | – | – | 13 | – | –
9 | MKRQKRDRLERAHQRGYQAGIAGRSKEMCPYQTLNQRSQWLGGWREAMADRVVMA [P0AFW2] | 0.535 | 0.588 | 0.382 | 0.441 | 0.472 ± 0.2 | – | 0.0712 | 0.0514 ± 0.073 | 0.352 | 0.686 ± 0.26 | – | 1.16

Reference: the supplement of paper PMC11246515
